{"source": "patent EP4786489A1", "about": "“IL-22 MUTANT, PREPARATION METHOD THEREFOR, AND USE THEREOF” (Nanjing Novoacine Biotechnology Co., Ltd., priority 2023, dated 2025)", "key": {"ear skin inflammation": {"tested_on": "ear skin inflammation", "details": "mouse, in vivo", "protocol": "Balb/C mice were used for induction of ear skin inflammation. By repeated inner-ear injections of the test candidates, changes in ear swelling thickness after injection were measured to reflect the ability of the test candidates to induce local inflammatory responses in the skin.\nOn Days 0, 1, 2 and 4, 5 µL of PBS solution containing the indicated amount of each test candidate was injected into the inner side of both ears of each mouse. Ear thickness was measured daily using a micrometer, and the increase of ear thickness relative to Day 0 (delta thickness) on each day after injection was calculated."}, "Reg3β": {"tested_on": "Reg3β", "experiment": "Mouse PD: plasma Reg3β after single administration (ELISA)", "format": "in vivo", "parameters": "Reg3βCmax: unit not given here", "details": "for Reg3βCmax: mouse plasma, wt IL-22 i.p.", "procedure": "The ELISA method was used to determine the baseline levels and post-dose changes of the biomarker Reg3β in plasma samples before and after administration of different test candidates.\nFor the preferable test candidates, one mouse per dose group was subcutaneously injected at 0.5, 1, or 3 mg/kg. The control molecules were IL-22-Fc, administered subcutaneously at 0.3 and 1 mg/kg, and wt IL-22, administered intraperitoneally at the corresponding doses.\nApproximately 40 µL of orbital blood was collected with anticoagulation on the day before dosing and at 4, 24, 48, 96, 144, 192, 264, 336, and 408 hours after dosing, followed by plasma separation. ELISA plates were coated overnight at 4°C with 1 µg/mL anti-Reg3β (Sino Biological, 51153-R065) dissolved in PBS. Mouse Reg3β (Sino Biological, 51153-M08H) was serially diluted to generate a positive control standard curve. Plasma samples were appropriately diluted to fall within the linear range of the standard curve. After blocking, samples were added and incubated for 2 hours. Incubation was then performed with the secondary antibody sheep anti-mouse Reg3β (R&D Systems, AF5110-SP) and HRP-conjugated antibody (HRP-Rabbit anti-sheep IgG H&L, Abcam, Ab97130). After final washing, tetramethylbenzidine peroxidase substrate (TMB, Surmodics, TMBS-1000-01) was added for color development for 10 minutes. The reaction was terminated with 2 M sulfuric acid, and absorbance was read at 450 nm with 630 nm as reference using a microplate reader. The original concentrations of Reg3β in each sample were calculated. Concentration versus time curves were plotted (Figure 9)."}, "SAA": {"tested_on": "SAA", "experiment": "Mouse PD preference study: plasma SAA", "format": "in vivo, mice", "details": "at equivalent or superior Reg3β Cmax: 60K-PEG-IL22-D109C 0.1 mg/kg vs 60K-PEG-IL22-P120C 0.3 mg/kg vs IL-22-Fc 1 mg/kg, s.c.", "procedure": "Based on the in vitro preference results and preliminary PD screening results, the molecules 60k-PEG-IL22-D109C and 60k-PEG-IL22-P120C were selected. PD testing was performed in three mice per dose group at different dose levels according to the method described in Example 14, including the pharmacodynamic-related molecule Reg3β and the inflammation-related molecule SAA. The control was IL-22-Fc. Blood samples were collected before dosing and at 4, 24, 48, 72, 96, 144, 192, 264, and 336 hours after dosing. Plasma was separated using anticoagulated blood samples. For the control molecules wt IL-22 and hB3-his, samples were collected only up to 96 hours.\nThe detection method for SAA was as follows: a kit containing detecting antibody pairs and positive controls (Abcam, Ab216059) was used to detect SAA concentrations in appropriately diluted plasma samples. The assay was performed according to the manufacturer's instructions. Sa-HRP (Pierce 21126) was used for conjugation. After washing, tetramethylbenzidine peroxidase substrate (TMB, Surmodics, TMBS-1000-01) was added for color development for 10 minutes. The reaction was terminated with 2 M sulfuric acid, and the plate was read at 450 nm with 630 nm as the reference using a microplate reader. SAA was measured before dosing and at 24, 48, 72, 96, and 144 hours after dosing. The original SAA concentration in each sample was calculated. […]"}}, "data": [{"molecule": "60K-PEG-IL22-P120C: IL-22 cysteine mutant, conjugation site 87, PEG-maleimide 60kD (conjugate) APISSHCRLDKSNFQQPYITNRTFMLAKEASLADNNTDVRLIGEKLFHGVSMSERCYLMKQVLNFTLEEVLFPQSDRFQPYMQEVVCFLARLSNRLSTCHIEGDDLHIQRNVQKLKDTVKKLGESGEIKAIGELDLLFMSLRNACI", "values": [{"measurement": "equivalent dose required to induce a comparable overall increase in ear thickness, relative to IL-22-Fc", "setting": "ear skin inflammation", "value": "approximately 8 fold"}, {"measurement": "Normalized Cmax ratio of Reg3β (relative to IL-22-Fc)", "setting": "Reg3β; 0.5mg/kg single dose vs IL-22-Fc 0.3 mg/kg", "value": 265, "unit": "%"}, {"measurement": "Reg3βCmax", "setting": "Reg3β; 0.5mg/kg single dose, test candidates s.c., one mouse per dose group", "value": 41.8}, {"measurement": "Normalized Cmax ratio of Reg3β (relative to IL-22-Fc)", "setting": "Reg3β; 1mg/kg single dose", "value": 133, "unit": "%"}, {"measurement": "Reg3βCmax", "setting": "Reg3β; 1mg/kg single dose, s.c.", "value": 43.9}, {"measurement": "Reg3βCmax", "setting": "Reg3β; 3mg/kg single dose, s.c.", "value": 43.3}, {"measurement": "peak concentrations of Reg3β stimulation compared with IL-22-Fc", "setting": "Reg3β; similar (0.5 mg/kg vs. 0.3 mg/kg) or identical (1 mg/kg) doses", "value": "higher peak concentrations"}, {"measurement": "SAA Cmax compared with IL-22-Fc", "setting": "SAA", "value": "significantly lower"}]}]}
